The results in this text go back to patent US20240343803A1 (SHANDONG SIMCERE BIOPHARMACEUTICAL, published 2024).

Test [1] has as its target T1, full-length cynomolgus monkey TIGIT on CHO-K1 cells (CHO-K1 cynomolgus monkey TIGIT) (cynomolgus monkey).
T1 construct: NCBI XP_015300911.1; also called cynomolgus monkey TIGIT cells
In words: FACS. As for the experimental part: The collected cells were washed once with PBS (Hyclone, CAT #SH30256), resuspended to 2×10⁵/50 μL with 1% BSA-PBS. The antibodies were diluted to 80 nM with 1% BSA-PBS (diluted by 3-fold serial dilution for 12 concentration points). The 50 μL cells were then mixed with 50 μL diluted antibodies, and then incubated at 4° C. for 60 minutes. […] After washing twice with PBS, the cell samples were resuspended with 1% BSA-PBS, 100 μL/well and then analyzed by flow cytometry (BD, Canto II). […] [0298] (c) The effect of anti-TIGIT chimeric antibodies blocking the interaction between Bio-CD155-His and CHO-K1 human TIGIT high expression cell strains detected by FACS
For orientation: In flow cytometry, cells or beads pass a laser one at a time.

For test [2], the target named is T2, human TIGIT ECD-mFc (fusion protein of extracellular domain of human TIGIT and mouse IgG2a Fc fragment) (human).
T2 chain: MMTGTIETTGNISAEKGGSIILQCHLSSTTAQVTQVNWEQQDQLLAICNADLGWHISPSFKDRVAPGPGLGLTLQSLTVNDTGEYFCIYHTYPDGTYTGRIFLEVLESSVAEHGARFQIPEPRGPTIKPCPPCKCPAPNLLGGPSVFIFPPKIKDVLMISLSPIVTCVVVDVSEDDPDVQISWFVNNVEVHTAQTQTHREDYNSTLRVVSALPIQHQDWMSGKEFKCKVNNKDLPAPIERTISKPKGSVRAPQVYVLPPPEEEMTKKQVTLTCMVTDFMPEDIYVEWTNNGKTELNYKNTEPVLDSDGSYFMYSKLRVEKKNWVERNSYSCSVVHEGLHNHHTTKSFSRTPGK
Description: ELISA. As for the experimental part:
(§1) After discarding the coating solution, the plate was added with 5% skim milk powder (Sangon Biotech, CAT #A600669-0250)-PBS, 250 μL/well, and incubated at 37° C. for 2-4 hours. […] The enzyme-labeled plate was then washed with 0.05% Tween 20-PBS for 3 times on the Microplate Washer, added with tested antibodies diluted to 13 nM with 1% BSA (diluted by 3-fold serial dilution for 12 concentration points), 50 μL/well, and incubated at 37° C. for 1.5-2 hours. The plate was washed with 0.05% Tween 20-PBS for 3 times on the Microplate Washer, then added with HRP enzyme-labeled antibodies (Merck, CAT #AP113P) diluted with 1% BSA (Sangon Biotech, CAT #A500023-0100)-PBS at a dilution ratio of 1:5000, 50 μL/well, and incubated at 37° C. for 1 hour. After washing 3 times with 0.05% Tween 20-PBS on the Microplate Washer, the plate was added with TMB chromogenic solution (KPL, CAT #52-00-03), 50 μL/well, and incubated at room temperature for 7-10 minutes. 1M HCL, 50 μL/well, was then added into the plate to terminate the reaction, and the OD450 nm was read by a microplate reader (Biotek, Powerwave HT). […] (b) The binding activity of anti-TIGIT chimeric antibodies to CHO-K1 human TIGIT (cells with high, medium and low expression levels) and CHO-KI cynomolgus monkey TIGIT detected by FACS.

The target of test [3] is T3, cynomolgus monkey TIGIT ECD-mFc (extracellular domain of cynomolgus monkey TIGIT and mouse IgG2a Fc fragment) (cynomolgus monkey).
T3 construct: entry includes the signal peptide, limits not readable here
Description: ELISA. As for the experimental part: as §1
(An ELISA detects its analyte on a solid surface through an enzyme-linked reagent.)

T1 sequence (chain, as listed by the source limits assumed): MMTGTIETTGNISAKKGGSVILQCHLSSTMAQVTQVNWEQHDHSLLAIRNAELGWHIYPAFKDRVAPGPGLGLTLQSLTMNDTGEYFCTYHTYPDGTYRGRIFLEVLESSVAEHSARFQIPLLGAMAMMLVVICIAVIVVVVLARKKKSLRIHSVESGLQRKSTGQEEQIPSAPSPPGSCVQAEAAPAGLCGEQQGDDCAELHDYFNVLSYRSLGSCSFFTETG

B1: RG6058-hIgG1 (antibody, V domains shown)
VH: EVQLQQSGPGLVKPSQTLSLTCAISGDSVSSNSAAWNWIRQSPSRGLEWLGKTYYRFKWYSDYAVSVKGRITINPDTSKNQFSLQLNSVTPEDTAVFYCTRESTTYDLLAGPFDYWGQGTLVTVSS
VL: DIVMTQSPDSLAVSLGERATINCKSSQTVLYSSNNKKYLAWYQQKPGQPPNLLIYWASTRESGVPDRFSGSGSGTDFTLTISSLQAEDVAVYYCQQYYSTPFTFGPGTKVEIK
notes: human IgG1 format by its name; also called Roche RG6058; control antibody RG6058
Broadly, the EC50 is the concentration at which the effect is half-maximal. Take B1: the EC50 in test [1] was 0.0509 nM; in test [2], 0.0151 nM; in test [3], 0.0158 nM.
